Experiments:
[1] = target: N.crassa E3-binding protein in the native pyruvate dehydrogenase complex (N.crassa); assay: cryo-EM structure; native PDC data EMPIAR-10489 reprocessed; symmetry-expanded consensus alignments only, C3 symmetry, 4.1 Å
[2] = target: the molecule itself; assay: cryo-EM structure; recombinant co-expressed CTD:CBD sub-complex (tE2/PX261); symmetry expansion, signal subtraction and classification of E2 trimers, C3 symmetry, 3.2 Å

With “N.crassa E3-binding protein in the native pyruvate dehydrogenase complex (natural protein)” the stoichiometry N [1] was 3.

B1: N.crassa E3-binding protein core-binding domain (residues 261-426), his-tagged (domain or fragment, UniProt Q7RWS2 261-426, looked up)
chain: PAPPPVAVVTAPISLSAAIDVQNKLHKTIGVFLPLSTFITRATEIANQKLPLPANYQPTADELFNQVLGLDKVTRKESRGSYTPTFGSFVAPQRAARKADIIDILAAPSTRVAASAQSKSAAPGLTTSGPNVFSLQVPKSEEKRAQAFLQKMKLVLEQEPDKLVRA
notes: residues 265-346 and 390-425 were built; Trimer inside the E2 core by the cryo-EM reconstruction; also called E3BP CBD; CBD; source: E. coli Rosetta2 (DE3), co-expressed with E2 225-458 from the petDuet vector, purified (Ni-NTA, SEC)
B1 was tested, and the “stoichiometry N” value [2] was 3.

B2: N.crassa E2 C-terminal catalytic transacetylase domain (residues 225-458) (domain or fragment, UniProt P20285 225-458, looked up)
chain: AAYTDVPISGMRKTIAARLKESVTENPHFFVSTNLSVSKLLKLRQALNSSADGRYKLSVNDFLIKAMGIASKRVPTVNSSWRDGVIRQFETVDVSVAVATPNGLITPIVKGVEGKGLESISAAVKELAKKARDGKLKPEEYQGGSISISNMGMNPAVQSFTAIINPPQAAILAVGAPQKVAVPVENEDGTTGVSWDEQIIVTASFDHKVVDGAVGAEWIRELKKVIENPLELLL
notes: Forms trimers that assemble into the icosahedral PDC core; also called E2 CTD; CTD; source: E. coli Rosetta2 (DE3), co-expressed with his-tagged E3BP 261-426 from the petDuet vector, purified (Ni-NTA, SEC)
B2: binds [2].
